Tested on: platelets
Test: Shear-activated platelet translocation on von Willebrand Factor in the microfluidic device (blood perfusion assay, platelet tracking software)
Format: cell-based
Conditions: whole blood treated with ReoPro 20 μg/ml for 20 minutes; vWF-coated test area; arterial shear rate 1500 s-1; compared to normal untreated platelets (FIG. 13)
From the text: The microfluidic device was used to measure the shear-activated response of platelets in the presence of von Willebrand Factor (vWF). In particular, the effect of platelet specific GPIIb-IIIa antagonist (abciximab, ReoPro) on platelet function was examined. Abciximab (trade name ReoPro, distributed by Eli Lilly) is a platelet aggregation inhibitor used mainly during and after coronary artery procedures to prevent platelets from sticking together, by platelet GPIIb-IIIa-mediated aggregation, and subsequent thrombus formation.
Blood Draw: Blood was obtained from volunteers by venopuncture using a 19-g needle attached to a polypropylene syringe containing anticoagulant solution. […]
Matrix deposition on microfluidic device: The components of the flow cells were assembled using a jig to ensure patterned psa layers are aligned. […] Using silastic laboratory tubing, von Willebrand Factor solution (˜100 ug/ml protein solution in Phosphate Buffered Saline solution (PBS) was injected to fill the flow cell. The platform was then left to sit for 2 hours to immobilise the vWF on the glass base. (The flow cells were blocked with 1% BSA solution (in PBS) for 1 hour at room temperature). Deposition of von Willebrand Factor was by coating through adsorption. The platforms were rinsed with PBS solution and were then ready for perfusion assays. […]

B1: abciximab (antibody, chains of the INN, looked up, V domains shown)
VH: EVQLQQSGTVLARPGASVKMSCEASGYTFTNYWMHWVKQRPGQGLEWIGAIYPGNSDTSYIQKFKGKAKLTAVTSTTSVYMELSSLTNEDSAVYYCTLYDGYYVFAYWGQGTLVTVSA
VL: EIVLTQSPVTLSVTPGDSVSLSCRASRDISNNLHWFQQTSHESPRLLIKYASQSMSGIPSRFSGSGSGTDFTLSINSVETEDFGMYFCQQTNSWPYTFGGGTKLEIK
modifications: Fab
notes: platelet specific GPIIb-IIIa antagonist
With B1 the average velocity was “increased” and the escape percentage was “increased”.
